The values below come from publication PMC7039645 (mAbs, 2020).

Where a chain is given by its changes, count along the chain named. Read-outs that look alike come from different tables or passages of the source.

Holding throughout (assay): SPR
The target of one assay is hen egg-white lysozyme (chicken (hen egg-white), UniProt P00698).
Assay [1] deals with T1, human epidermal growth factor receptor 2 (Homo sapiens, UniProt P04626).
For assay [2], the target named is T1, human epidermal growth factor receptor 2. The source holds these as a separate data set.

B1: F9.13.7 (antibody, V domains shown)
VH: QVQLQQPGAELVKPGASVKLSCKASGYTFTSYWMHWVKQGPGQGLEWIGEIDPSDSYPNYNEKFKGKATLTVDKSSSTAYMQLSSLTSEDSAVYYCASLYYYGTSYGVLDYWGQGTSVTVSS
VL: DIQMTQTTSSLSASLGDRVTISCRASQDISNYLNWYQKKPDGTVKLLIYYTSRLHSGVPSRFSGSGSGTDYSLTIRNLEQEDIATYFCQQGYTLPYTFGGGTKLEIK
For B1, in the assay with hen egg-white lysozyme, the binding result was “binds”.

B2: hu2C4-g3.1 IgG1 (antibody, V domains shown)
VH: EVQLVESGGGLVQPGGSLRLSCAASGFTFTDYTMDWVRQAPGKGLEWVADVNPNSGGSIYNQRFKGRFTLSVDRSKNTLYLQMNSLRAEDTAVYYCARLMSYGYFDYWGQGTLVTVSS
VL: DIQMTQSPSSLSASVGDRVTITCKASQDVSIGVAWYQQKPGKAPKLLIYSASYRYTGVPSRFSGSGSGTDFTLTISSLQPEDFATYYCQQYYIYPYTFGQGTKVEIK
As to B2, in assay [1], the Kd worked out at 6.4 nM, the koff came out at 0.0004 s⁻¹ and the kon came out at 63000 M⁻¹ s⁻¹.

B3: hu2C4-g3.2 IgG1 (antibody, V domains shown)
VH: B2 VH with M100L, S101A, F105L
VL: B2 VL
In assay [1], B3 showed a Kd of 9.9 nM, a koff of 0.00057 s⁻¹ and a kon of 58000 M⁻¹ s⁻¹.

B4: hu2C4-g2.1 IgG1 (antibody, V domains shown)
VH: EVQLVESGGGLVQPGGSLRLSCAASGFTFTDYTMDWVRQAPGKGLEWVADVNPNSGGSIYNQRFKGRFTLSVDRSKNTLYLQMNSLRAEDTAVYYCARSSTPPFFMDYWGQGTLVTVSS
VL: B2 VL
On to B4, for which, in assay [1], binding was characterised by a dissociation constant (Kd) of 25 nM, the koff came out at 0.00096 s⁻¹ and the kon was 39000 M⁻¹ s⁻¹.

B5: hu2C4-g1.2 IgG1 (antibody, V domains shown)
VH: B4 VH with S99A, S100I, P102N, P103E, F104V, F105L, M106L
VL: B2 VL
In assay [1], B5 gave a Kd of 28 nM, a koff of 0.0014 s⁻¹ and a kon of 49000 M⁻¹ s⁻¹.

B6: hu2C4-g1.1 IgG1 (antibody, V domains shown)
VH: B4 VH with S99A, S100I, T101A, P102G, P103G, F104V, F105L, M106L
VL: B2 VL
In assay [1], B6 had a Kd of 25 nM, a koff of 0.0012 s⁻¹ and a kon of 48000 M⁻¹ s⁻¹.

B7: hu2C4-g2.2 IgG1 (antibody, V domains shown)
VH: B4 VH with T101R, F104W, M106F
VL: B2 VL
In assay [1], B7 registered a Kd of 23 nM, a koff of 0.0015 s⁻¹ and an on-rate constant (kon) of 65000 M⁻¹ s⁻¹.

B8: hu4D5-g3.1 Fab (Fab, V domains shown)
VH: EVQLVESGGGLVQPGGSLRLSCAASGFNIKDTYIHWVRQAPGKGLEWVARIYPTNGYTRYADSVKGRFTISADTSKNTAYLQMNSLRAEDTAVYYCARGHYSSGHPFDYWGQGTLVTVSS
VL: not shown
In assay [2], B8 came in with a Kd of 0.39 nM, a koff of 0.00032 s⁻¹ and a kon of 960000 M⁻¹ s⁻¹.

B9: hu4D5-g2.1 Fab (Fab, V domains shown)
VH: B8 VH with G99S, Y101K, S102N, S103V, G104M, H105G, P106L, F107V
VL: not shown
In assay [2], B9 gave a Kd of 0.27 nM, a koff of 0.00035 s⁻¹ and a kon of 1.6e+06 M⁻¹ s⁻¹.

B10: hu4D5-g3.2 Fab (Fab, V domains shown)
VH: B8 VH with H100I, Y101G, S102N, S103G, G104A, H105E, P106G, F107M
VL: not shown
In assay [2], B10 gave a Kd of 1.8 nM, a koff of 0.0011 s⁻¹ and a kon of 660000 M⁻¹ s⁻¹.

B11: hu4D5-g2.2 Fab (Fab, V domains shown)
VH: B8 VH with G99S, Y101A, S102L, S103V, G104Y, H105G, P106L, F107I
VL: not shown
For the molecule B11, in assay [2], the Kd stood at 0.33 nM, the koff was 0.00043 s⁻¹ and the kon is 1.8e+06 M⁻¹ s⁻¹.
